Data reported in paper PMC5910026 (Biochemistry, 2018).

Biological target: the molecule itself
Experiment: AUC

B1: MxiN (recombinant, from pET15b) (natural protein)
chain: MKVCNMQKGTLPVSRHHAYDGVVIKRIEKELCKTIKDRDTESKKKAICVIKDATKKAESLRIDAVCDGYQIGIQTAFEHIIDYICEWKLKQNENRRNIEDYITSLLSENLHDERIISTLLEQWLSSLRNTVTELKVVLPKCNLALRKKLELDLHKYRSDVKIILKYSEGNNYIFCSGNQVVEFSPQDVISGVKIELAEKLTKNDKKYFKELAHKKLRQIAEDLLKENPVND
stoichiometry N: 2
